Tests used:
Assay in all cases: cell-based or functional assay
[1] = molecular target: hemagglutinin (HA) of influenza A/Brisbane/02/2018 H1N1 (Influenza A virus A/Brisbane/02/2018 (H1N1))
[2] = molecular target: hemagglutinin (HA) of influenza A/California/4/2009 pH1N1 (Influenza A virus A/California/4/2009 (pH1N1))
[3] = molecular target: hemagglutinin (HA) of influenza A/Cambodia/e0826360/2020 (2021-22) H3N2 (Influenza A virus A/Cambodia/e0826360/2020 (H3N2))
[4] = molecular target: hemagglutinin (HA) of influenza A/Guangdong-maonan/2019 (Cell) H1N1 (Influenza A virus A/Guangdong-maonan/2019 (H1N1), (Cell))
[5] = molecular target: hemagglutinin (HA) of influenza A/Guangdong-maonan/2019 (Egg) H1N1 (Influenza A virus A/Guangdong-maonan/2019 (H1N1), (Egg))
[6] = molecular target: hemagglutinin (HA) of influenza A/Hong Kong/2671/2019 (Egg) H3N2 (Influenza A virus A/Hong Kong/2671/2019 (H3N2), (Egg))
[7] = molecular target: hemagglutinin (HA) of influenza A/Kansas/14/2017 H3N2 (Influenza A virus A/Kansas/14/2017 (H3N2))
[8] = molecular target: hemagglutinin (HA) of influenza A/Michigan/45/2015 pH1N1 (Influenza A virus A/Michigan/45/2015 (pH1N1))
[9] = molecular target: hemagglutinin (HA) of influenza A/Singapore/INFIMH-16-0019/2016 H3N2 (Influenza A virus A/Singapore/INFIMH-16-0019/2016 (H3N2))
[10] = molecular target: hemagglutinin (HA) of influenza A/Victoria/2570/2019 (2021-22) H1N1 (Influenza A virus A/Victoria/2570/2019 (H1N1))
[11] = molecular target: hemagglutinin (HA) of influenza B/California/12/2015 B-Yam (Influenza B virus B/California/12/2015)
[12] = molecular target: hemagglutinin (HA) of influenza B/Colorado/06/2017 B-Vic (Influenza B virus B/Colorado/06/2017 (B-Vic))
[13] = molecular target: hemagglutinin (HA) of influenza B/Maryland/15/2016 B-Vic (Influenza B virus B/Maryland/15/2016 (B-Vic))
[14] = molecular target: hemagglutinin (HA) of influenza B/Phuket/3073/2013 B-Yam (Influenza B virus B/Phuket/3073/2013 (B-Yam))
[15] = molecular target: hemagglutinin (HA) of influenza B/Washington/02/2019 B-Vic (Influenza B virus B/Washington/02/2019)
[16] = molecular target: hemagglutinin (HA) of influenza A/Hong Kong/4801/2014 H3N2 (Influenza A virus A/Hong Kong/4801/2014 (H3N2))
[17] = molecular target: hemagglutinin (HA) of influenza A/Switzerland/9715293/2013 H3N2 (Influenza A virus A/Switzerland/9715293/2013 (H3N2))
[18] = molecular target: hemagglutinin (HA) of influenza B/Brisbane/60/2008 B-Vic (Influenza B virus B/Brisbane/60/2008 (B-Vic))

Substance | HAI titer (reciprocal dilution) [1] | HAI titer (Huber virus stock) (reciprocal dilution) [2] | HAI titer (hVIVO virus stock) (reciprocal dilution) [2] | HAI titer (reciprocal dilution) [3] | HAI titer (reciprocal dilution) [4] | HAI titer (reciprocal dilution) [5] | HAI titer (reciprocal dilution) [6] | HAI titer (reciprocal dilution) [7] | HAI titer (reciprocal dilution) [8] | HAI titer (reciprocal dilution) [9] | HAI titer (reciprocal dilution) [10] | HAI titer (reciprocal dilution) [11] | HAI titer (reciprocal dilution) [12] | HAI titer (reciprocal dilution) [13] | HAI titer (reciprocal dilution) [14] | HAI titer (reciprocal dilution) [15] | HAI titer (reciprocal dilution) [2] | HAI titer (reciprocal dilution) [16] | HAI titer (reciprocal dilution) [17] | HAI titer (reciprocal dilution) [18]
SAB-176 Lot 1 V3 (antibody) | 512 | 512 | 512 | 128 | 512 | 512 | 64 | 64 | 512 | 512 | 256 | 128 | 256 | 256 | 128 | 64 |  |  |  | 
SAB-176 Lot 2 V3-V5 (antibody) | 512 | 512 | 1024 | 256 | 512 | 512 | 128 | 64 | 512 | 512 | 256 | 128 | 256 | 256 | 256 | 128 |  |  |  | 
SAB-176 Lot 3 V3-V12 (antibody) | 512 | 512 | 512 | 256 | 512 | 512 | 256 | 512 | 512 | 512 | 256 | 128 | 256 | 128 | 128 | 64 |  |  |  | 
SAB-176 Lot 4 V3-V12 (antibody) | 512 | 512 | 512 | 256 | 512 | 512 | 256 | 256 | 512 | 512 | 256 | 128 | 256 | 256 | 128 | 128 |  |  |  | 
negative control IgG (antibody) | < 1 | < 1 | < 1 | < 1 | < 1 | < 1 | < 1 | < 1 | < 1 | < 1 | < 1 | < 1 | < 1 | < 1 | < 1 | < 1 | < 1 | < 1 | < 1 | < 1

— patent US20250320279A1, “UNGULATE-DERIVED POLYCLONAL IMMUNOGLOBULIN SPECIFIC FOR INFLUENZA VIRUS AND USES THEREOF” (priority 2021, published 2025)
